Legend:
Assay in all cases: holdup assay
Parameters in all cases: key: below the threshold = too weak to quantify, mostly under pKd 3.1 to 4
IL16_4, Q14005 = target: IL16_4, Q14005
Inadl_3, Q8NI35 = target: Inadl_3, Q8NI35
MPDZ_12, O75970 = target: T1, MPDZ_12, O75970
T1 sequence (O75970 1857-1958, limits assumed, looked up): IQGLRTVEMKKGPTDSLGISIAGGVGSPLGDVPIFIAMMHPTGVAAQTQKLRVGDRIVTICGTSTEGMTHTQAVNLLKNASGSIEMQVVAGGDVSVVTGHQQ

GRIP1_7, Q9Y3R0 = target: T2, GRIP1_7, Q9Y3R0
T2 sequence (Q9Y3R0 999-1096, limits assumed, looked up): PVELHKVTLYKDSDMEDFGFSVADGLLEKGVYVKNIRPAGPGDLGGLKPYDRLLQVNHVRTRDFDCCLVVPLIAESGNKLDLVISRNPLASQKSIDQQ

LIN7A, O14910 = target: T3, LIN7A, O14910
T3 sequence (O14910 103-200, limits assumed, looked up): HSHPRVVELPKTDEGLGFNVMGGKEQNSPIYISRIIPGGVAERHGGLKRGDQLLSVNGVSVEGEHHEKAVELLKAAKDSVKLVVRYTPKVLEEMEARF

PARD3B_1, Q8TEW8 = target: T4, PARD3B_1, Q8TEW8
T4 sequence (Q8TEW8 196-299, limits assumed, looked up): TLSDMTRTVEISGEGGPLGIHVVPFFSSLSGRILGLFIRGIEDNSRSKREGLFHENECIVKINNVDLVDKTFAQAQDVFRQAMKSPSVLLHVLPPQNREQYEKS

MAGI2_3, Q86UL8 = target: MAGI2_3, Q86UL8
MAGI2_3, Q86UL8, sequence (Q86UL8 600-682): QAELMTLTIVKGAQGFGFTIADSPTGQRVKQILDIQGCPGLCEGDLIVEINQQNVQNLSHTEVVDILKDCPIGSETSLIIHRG

APBA2_1, Q99767 = target: T5, APBA2_1, Q99767
T5 sequence (Q99767 563-664, limits assumed, looked up): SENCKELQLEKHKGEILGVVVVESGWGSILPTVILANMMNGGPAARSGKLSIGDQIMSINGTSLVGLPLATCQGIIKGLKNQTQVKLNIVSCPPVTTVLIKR

PDZRN3_1, Q9UPQ7 = target: T6, PDZRN3_1, Q9UPQ7
T6 sequence (Q9UPQ7 244-349, limits assumed, looked up): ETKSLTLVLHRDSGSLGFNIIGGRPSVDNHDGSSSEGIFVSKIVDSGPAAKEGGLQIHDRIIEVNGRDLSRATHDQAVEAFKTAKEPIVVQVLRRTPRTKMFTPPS

NHERF3_1, Q5T2W1 = target: T7, NHERF3_1, Q5T2W1
T7 sequence (Q5T2W1 4-100, limits assumed, looked up): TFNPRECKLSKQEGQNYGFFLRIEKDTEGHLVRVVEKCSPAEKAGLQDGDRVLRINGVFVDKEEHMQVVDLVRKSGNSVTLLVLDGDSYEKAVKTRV

PARD3_3, Q8TEW0 = target: PARD3_3, Q8TEW0
PARD3_3, Q8TEW0, sequence (Q8TEW0 582-685): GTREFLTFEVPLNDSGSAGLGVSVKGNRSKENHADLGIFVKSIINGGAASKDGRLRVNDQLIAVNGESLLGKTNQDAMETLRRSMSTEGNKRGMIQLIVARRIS

GRID2IP_1, A4D2P6 = target: GRID2IP_1, A4D2P6
GRID2IP_1, A4D2P6, sequence (A4D2P6 1-87): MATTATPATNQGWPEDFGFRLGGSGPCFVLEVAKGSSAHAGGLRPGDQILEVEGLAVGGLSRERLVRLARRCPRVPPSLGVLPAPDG

FRMPD1, Q5SYB0 = target: T8, FRMPD1, Q5SYB0
T8 sequence (Q5SYB0 52-145, limits assumed, looked up): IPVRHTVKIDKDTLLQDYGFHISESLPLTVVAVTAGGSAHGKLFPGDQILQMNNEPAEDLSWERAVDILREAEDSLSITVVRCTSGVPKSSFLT

FRMPD4, Q14CM0 = target: FRMPD4, Q14CM0
FRMPD4, Q14CM0, sequence (Q14CM0 67-160): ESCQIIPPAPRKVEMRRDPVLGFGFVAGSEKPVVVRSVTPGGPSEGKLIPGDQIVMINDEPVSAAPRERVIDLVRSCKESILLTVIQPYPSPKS

MPDZ_5, O75970 = target: T9, MPDZ_5, O75970
T9 sequence (O75970 695-796, limits assumed, looked up): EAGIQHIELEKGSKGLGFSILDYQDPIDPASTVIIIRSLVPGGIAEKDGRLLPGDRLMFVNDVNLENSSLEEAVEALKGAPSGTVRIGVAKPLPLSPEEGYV

GRIP1_5, Q9Y3R0 = target: T10, GRIP1_5, Q9Y3R0
T10 sequence (Q9Y3R0 568-668, limits assumed, looked up): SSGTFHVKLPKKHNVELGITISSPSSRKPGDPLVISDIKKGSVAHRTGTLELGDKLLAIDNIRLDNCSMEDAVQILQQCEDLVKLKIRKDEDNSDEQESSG

PDLIM1, O00151 = target: PDLIM1, O00151
PDLIM1, O00151, sequence (O00151 1-87): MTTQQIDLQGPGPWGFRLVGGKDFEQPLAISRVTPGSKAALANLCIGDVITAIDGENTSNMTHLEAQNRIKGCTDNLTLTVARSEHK

NOS1, P29475 = target: NOS1, P29475
NOS1, P29475, sequence (P29475 9-101): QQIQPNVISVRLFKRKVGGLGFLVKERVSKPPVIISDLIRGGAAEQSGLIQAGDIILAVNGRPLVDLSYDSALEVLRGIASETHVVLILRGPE

LDB3, O75112 = target: LDB3, O75112
LDB3, O75112, sequence (O75112 1-94): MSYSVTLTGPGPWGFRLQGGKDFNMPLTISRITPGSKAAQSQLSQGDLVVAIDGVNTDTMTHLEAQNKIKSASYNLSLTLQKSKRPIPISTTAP

APBA3_1, O96018 = target: T11, APBA3_1, O96018
T11 sequence (O96018 389-490, limits assumed, looked up): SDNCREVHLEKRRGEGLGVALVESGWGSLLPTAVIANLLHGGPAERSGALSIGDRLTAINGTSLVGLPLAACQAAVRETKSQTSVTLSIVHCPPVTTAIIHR

DLG3_1, Q92796 = target: T12, DLG3_1, Q92796
T12 sequence (Q92796 125-227, limits assumed, looked up): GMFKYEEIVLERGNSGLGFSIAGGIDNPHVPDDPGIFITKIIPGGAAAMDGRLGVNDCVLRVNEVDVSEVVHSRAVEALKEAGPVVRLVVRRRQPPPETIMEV

DLG4_1, P78352 = target: DLG4_1, P78352
DLG4_1, P78352, sequence (P78352 62-152): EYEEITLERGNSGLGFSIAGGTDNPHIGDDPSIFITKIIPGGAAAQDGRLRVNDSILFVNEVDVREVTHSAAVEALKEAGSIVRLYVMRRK

MAGI2_6, Q86UL8 = target: MAGI2_6, Q86UL8
MAGI2_6, Q86UL8, sequence (Q86UL8 1141-1229): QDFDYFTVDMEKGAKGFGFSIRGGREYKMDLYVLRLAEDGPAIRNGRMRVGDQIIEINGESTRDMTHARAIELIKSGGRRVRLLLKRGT

CARD11, Q9BXL7 = target: T13, CARD11, Q9BXL7
T13 sequence (Q9BXL7 662-765, limits assumed, looked up): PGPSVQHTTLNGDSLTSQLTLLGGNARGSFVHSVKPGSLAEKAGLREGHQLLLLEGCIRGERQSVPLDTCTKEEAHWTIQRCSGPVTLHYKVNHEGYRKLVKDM

[1] = plain residues with an end cap or a label only (N-terminal biotin on a linker: ahx)
[2] = plain residues with an end cap or a label only (N-terminal biotin on a linker: gsgsgs; C-terminal amide)

Measured: pKd

Inadl_3, Q8NI35, sequence (Q8NI35 359-469): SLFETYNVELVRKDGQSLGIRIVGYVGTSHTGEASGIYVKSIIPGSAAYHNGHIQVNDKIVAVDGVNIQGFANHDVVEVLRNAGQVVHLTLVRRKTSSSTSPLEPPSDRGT
IL16_4, Q14005, sequence (Q14005 1229-1329): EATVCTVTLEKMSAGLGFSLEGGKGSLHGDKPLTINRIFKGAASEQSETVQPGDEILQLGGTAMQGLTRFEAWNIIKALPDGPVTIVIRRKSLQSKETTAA

B1: PDLIM4, P50479;P50479-2 (peptide)
chain: PSASCAVTAA
below the threshold: IL16_4, Q14005; [1] | Inadl_3, Q8NI35; [1] | MPDZ_12, O75970; [1] | GRIP1_7, Q9Y3R0; [1] | LIN7A, O14910; [1] | PARD3B_1, Q8TEW8; [1] | MAGI2_3, Q86UL8; [1] | APBA2_1, Q99767; [1] | PDZRN3_1, Q9UPQ7; [1] | NHERF3_1, Q5T2W1; [1] | PARD3_3, Q8TEW0; [1] | GRID2IP_1, A4D2P6; [1] | FRMPD1, Q5SYB0; [1] | FRMPD4, Q14CM0; [1] | MPDZ_5, O75970; [1] | GRIP1_5, Q9Y3R0; [1] | PDLIM1, O00151; [1] | NOS1, P29475; [1] | LDB3, O75112; [1] | APBA3_1, O96018; [1] | DLG3_1, Q92796; [1] | DLG4_1, P78352; [1] | MAGI2_6, Q86UL8; [1] | CARD11, Q9BXL7; [1]

B2: DFNB31_int, Q9P202 (peptide)
chain: VSVDDVRSTSQGLSSY
below the threshold: IL16_4, Q14005; [2] | Inadl_3, Q8NI35; [2] | MPDZ_12, O75970; [2] | GRIP1_7, Q9Y3R0; [2] | LIN7A, O14910; [2] | PARD3B_1, Q8TEW8; [2] | MAGI2_3, Q86UL8; [2] | APBA2_1, Q99767; [2] | PDZRN3_1, Q9UPQ7; [2] | NHERF3_1, Q5T2W1; [2] | PARD3_3, Q8TEW0; [2] | GRID2IP_1, A4D2P6; [2] | FRMPD1, Q5SYB0; [2] | FRMPD4, Q14CM0; [2] | MPDZ_5, O75970; [2] | GRIP1_5, Q9Y3R0; [2] | PDLIM1, O00151; [2] | NOS1, P29475; [2] | LDB3, O75112; [2] | APBA3_1, O96018; [2] | DLG3_1, Q92796; [2] | DLG4_1, P78352; [2] | MAGI2_6, Q86UL8; [2] | CARD11, Q9BXL7; [2]

From article PMC9482650, “Quantitative fragmentomics allow affinity mapping of interactomes” (Nature Communications, 2022)
